The supplement of paper PMC9170038

Experiments:
MS2 coat protein [1] = experiment: apparent KD of MS2 coat protein; designed switch direction (-1 OFF switch, 1 ON switch): -1; higher = weaker reporter binding; details: Eterna round: R98
Description: (§1)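 RNA-MaP: designed FMN/MS2 RNA switches (84 nt design region) are transcribed on-chip within common flanks and titrated with SNAP-549-labelled MS2 coat protein (about 1-3000 nM) in 100 mM Tris pH 7.5, 80 mM KCl, 4 mM MgCl2, without or with 200 uM FMN. Median apparent KD per design; activation ratio = KD,OFF / KD,ON.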

MS2 coat protein [2] = experiment: apparent KD of MS2 coat protein; higher = weaker reporter binding; details: Eterna round: R101
Description: as §1

MS2 coat protein [3] = experiment: apparent KD of MS2 coat protein; designed switch direction (-1 OFF switch, 1 ON switch): 1; higher = weaker reporter binding; details: Eterna round: R98
Description: as §1

| Sequence | apparent KD of MS2 coat protein (MS2 coat protein [2]; input ligand: FMN 200 uM) | apparent KD of MS2 coat protein (MS2 coat protein [2]; input ligand: none) | further results |
| --- | --- | --- | --- |
| AAAAUAAAGGCAGGAUAUACAUGAAUAUAUAAUAUAAUAUAUAAUAUAACAUGAGGAUCACCCAUGUAGAAGGGCCAAAAUAAA [LRO026_Exclusion NG 2] | – | – | apparent KD of MS2 coat protein (MS2 coat protein [1]; input ligand: FMN 200 uM): 0.0881 µM; apparent KD of MS2 coat protein (MS2 coat protein [1]; input ligand: none): 0.0464 µM |
| AAAUAAACUCAAGGAUAUGACUCCGAAACGGAGUCAGAAGGUGAGGAUCACCCACCUAAGAUCAGACCUCAGGAAACUGAGGUC [#SharedSequence ExNG1 - 36] (puzzle (switch architecture): Exclusion NG 1) | 0.0132 µM | 0.00646 µM | – |
| AAAUAAAUUCAAGGAUAUCAGUGGCAAAGCCACUGAGAAGGUGAGGAUCACCCACCUAUGAUCACAGGUGACGAAAGUCACCUG [#SharedSequence ExNG1 - 38] (puzzle (switch architecture): Exclusion NG 1) | 0.0114 µM | 0.0113 µM | – |
| AAAUCUCGAGCCGACGGGAGAGUACAUGAGGAUCACCCAUGUGAGGAUAUCCCUGAGAAGACGGCGGAGAAGGCACUGGGUAGG [Erzaribeve] (puzzle (switch architecture): Exclusion NG 3) | 0.00995 µM | 0.0086 µM | – |
| AAAUGAUAUCAGAAGGGCUCCAGCAAAGCUGGAGCAGGAUAUGAGGAUCACCCAUGUCACCUGACGGUCGAAACGACCGUCAGG [#SharedSequence - IExNG1: 7-3] (puzzle (switch architecture): Inverted Exclusion NG 1) | 0.205 µM | 0.0266 µM | – |
| AAAUGCCUGUCGAUGCUCGACAUGAGGAUCACCCAUGUAUAGCAGGAUAUGCAGAACUGACUCGUGCAGAAGGGCUAUACCUAA (puzzle (switch architecture): Exclusion NG 3) | 0.0528 µM | 0.0187 µM | – |
| AAUAAUCUUUAAGGAUAUCAGUGGCAAAGCCACUGAGAAGGUGAGGAUCACCCACCUACGUGACCCUGGAAACAGGGUCACGAA [#SharedSequence - ExNG1-10] (puzzle (switch architecture): Exclusion NG 1) | 0.0154 µM | 0.0143 µM | – |
| AAUAUAAAGAGCUGGUCUCAAAUAACAUGAGGAUCACCCAUGUAGGAUAUCAGCACGAUAAGUGCUGAGAAGGACAUCCAGCUC [Denovo 49] | – | – | apparent KD of MS2 coat protein (MS2 coat protein [1]; input ligand: FMN 200 uM): 0.0189 µM; apparent KD of MS2 coat protein (MS2 coat protein [1]; input ligand: none): 0.0159 µM |
| AUAUAUAUAUAGAAGGACAUGAGGAUCACCCAUGUCGCCGGGCCCGGGAAACCGGGCCCGGCCAUGUAGGAUAUAUAUAUAUAU [#This is a good prank 12] (puzzle (switch architecture): Inverted Exclusion NG 2) | 0.00557 µM | 0.00355 µM | – |
| CAGUCGACCAUAACAAGGUCGACUGACUUCUGAGGAUCACCCAGAAGGCGUCACCUAAUAGGUGACGAGGAUAUGGAGUGAAAA [#SharedSequence IExNG# - 6] (puzzle (switch architecture): Inverted Exclusion NG 3) | 0.075 µM | 0.095 µM | – |
| GAGAAGAAGUUAGGAUAUUGGAUAGGGACGGAAUAAGAAGGAGCAAGGGACAUGAGGAUCACCCAUGUAGAAGAAGAGAUCCUC [X-NG1_50] (puzzle (switch architecture): Exclusion NG 1) | 0.0109 µM | 0.0267 µM | – |
| GCACUGGAUGUAGGAUAUCAGGACGAUAAGUCCUGAGAAGGACAUGAGGAUCACCCAUGUCCCAAAACCAGUGCAUAUAAUAUA [Denovo Exng1 31] | – | – | apparent KD of MS2 coat protein (MS2 coat protein [1]; input ligand: FMN 200 uM): 0.0198 µM; apparent KD of MS2 coat protein (MS2 coat protein [1]; input ligand: none): 0.0143 µM |
| GCAGCUAAUGCAGGAUAUCAGCACGUGUAGUGCUGAGAAGGGCACAUGAGGAUCAAAACUGUGAUCAAUUAAUAUUAAUGCUGC [salish99#hingeEx3_55-58_001] (puzzle (switch architecture): Exclusion NG 1) | 0.00828 µM | 0.00912 µM | – |
| GCCAUCGCAUGAGGAUAUGCUCCGGUUUCCGGAGCAGAAGGCAUGUCAUAAGACAUGAGGAUCACCCAUGUAGUUAAGAUGGCA [#HiddenHairpinInALoop - jl-sng1-2.00 jl mod - Original] (puzzle (switch architecture): Same State NG 1) | 0.0106 µM | 0.283 µM | – |
| GCGCGCGCGUCAGGAUAUACAUGAGGAUCACCCAUGUGUGCGCGCGCGCGCGCGCGCGCGCGCGUGUAGAAGGGACGCUGUCGC [Incredible-Exclusion NG 2] | – | – | apparent KD of MS2 coat protein (MS2 coat protein [1]; input ligand: FMN 200 uM): 0.0206 µM; apparent KD of MS2 coat protein (MS2 coat protein [1]; input ligand: none): 0.0144 µM |
| GGAGAUACAUGAGGAUCACCCAUGUAGGAUAUAUAGUAUAUAUAUAUUGAAAGAUAUAUAUAUAUAUAGAAGGGCGUGCACACC [#LOL-17] (puzzle (switch architecture): Small Loop Exclusion NG 3) | 0.00632 µM | 0.00877 µM | – |

| Sequence | apparent KD of MS2 coat protein (MS2 coat protein [2]; input ligand: FMN 200 uM) | apparent KD of MS2 coat protein (MS2 coat protein [2]; input ligand: none) | further results |
| --- | --- | --- | --- |
| GGUCGACUUCAAGGAUAUGGACUGCAAAGCAGUCCAGAAGGUGAGGAUCACCCACCUACGGUCAGGAAACUGACCGAUCGACCA [#SharedSequence - ExNG1-4] (puzzle (switch architecture): Exclusion NG 1) | 0.0123 µM | 0.0105 µM | – |
| GUAGCAUUGAGAGGAUAUCCAUACCGGAAACGGACAUGAGGAUCACCCAUGUGGCGAAAGCCUUGGGAGAAGGCUCUAUGCUAC [S-state NG2 01] (puzzle (switch architecture): Same State NG 2) | – | 0.00434 µM | – |
| UAAAUAAAUCCUAGAGGAUCACCCUAGGAUAUCACCGUCGAGGUGCCAUAAUGGCACCUCGACGGUGAGAAGGAGGGAAAUAAA [#SharedSequence - SLExNG3: 3] (puzzle (switch architecture): Small Loop Exclusion NG 3) | 0.0116 µM | 0.00997 µM | – |
| UAAAUAAAUCCUAGAGGAUCACCCUAGGAUAUCACCGUCGAGGUGCCAUAAUGGCACCUCGACGGUGAGAAGGAGGUUGAUAAA [#SharedSequence - SLExNG3: 6] (puzzle (switch architecture): Small Loop Exclusion NG 3) | 0.013 µM | 0.00833 µM | – |
| UAAAUAGAUCCUAGAGGAUCACCCUAGGAUAUCACCGUCGAGGUGCCAUAAUGGCACCUCGACGGUGAGAAGGAGGUUGAUAAA [#SharedSequence - SLExNG3: 7] (puzzle (switch architecture): Small Loop Exclusion NG 3) | 0.0199 µM | 0.0114 µM | – |
| UAGUGUUCUCGAGGAUAUGGGUUCCGUUUUAGCCCAGAAGGCGAACAUGAGGAUCACCCAUGUAUGAAUACACAGCAGAAUUGU [Teedri] | – | – | apparent KD of MS2 coat protein (MS2 coat protein [3]; input ligand: FMN 200 uM): 0.153 µM; apparent KD of MS2 coat protein (MS2 coat protein [3]; input ligand: none): 1.75 µM |
| UAUAUAUAUUGAGGAUAUGCACAGGAUCACCGUGUAGAAGGCAUCAGGGAGAAGGUGCAGAGGAUCACCCUGUAAGGAUAUCAU [pwkr2 ssNG1 DX.1] | – | – | apparent KD of MS2 coat protein (MS2 coat protein [3]; input ligand: FMN 200 uM): 0.146 µM; apparent KD of MS2 coat protein (MS2 coat protein [3]; input ligand: none): 0.205 µM |
| UAUUAUUUGGAGAAGGACAUGAGGAUCACCCAUGUCGCCGGGCCCGGGAAACCGGGCCCGGCCAUGUAGGAUAUCCGGAUGGUA [#This is a good prank 4] (puzzle (switch architecture): Inverted Exclusion NG 2) | 0.00761 µM | 0.00731 µM | – |
| UAUUUAUGGUGAGGAUAUGCAAAGGAUCACCUUGUAGAAGGCAUCAGGUAGAAGGUGCAGAGGAUCACCCUGUAAGGAUAUAUC [pwkr2 ssNG1 DX.22] | – | – | apparent KD of MS2 coat protein (MS2 coat protein [3]; input ligand: FMN 200 uM): 0.0661 µM; apparent KD of MS2 coat protein (MS2 coat protein [3]; input ligand: none): 0.232 µM |
| UCACUCACGUUAGGAUAUGGAUCGGAAAACGAUCCAGAAGGAACCUGCAAACCUGAGGAACACCCAGGUUCCAAUAACGAGUGA [SameSame 8 - Jieux - Same State NG 1] | – | – | apparent KD of MS2 coat protein (MS2 coat protein [3]; input ligand: FMN 200 uM): 0.745 µM; apparent KD of MS2 coat protein (MS2 coat protein [3]; input ligand: none): 0.839 µM |
| UCAGGUCGGGAAGGAUAUCGGCCGCAGAGAGCUCGAGAAGGUCCCGACAUGAGGAUCACCCAUGUUGAAGGAUCCUAACGUGCC [Maonan] | – | – | apparent KD of MS2 coat protein (MS2 coat protein [1]; input ligand: FMN 200 uM): 0.0354 µM; apparent KD of MS2 coat protein (MS2 coat protein [1]; input ligand: none): 0.0383 µM |
| UCCGAUGUACAUGAGGAUCACCCAUGUCAUAUGCCCGUGACACAGGAUAUCCAGGGUAGGCCAAAGGAGAAGGGUGAUCCGCGG [Lelete] | – | – | apparent KD of MS2 coat protein (MS2 coat protein [3]; input ligand: FMN 200 uM): 0.122 µM; apparent KD of MS2 coat protein (MS2 coat protein [3]; input ligand: none): 0.0518 µM |
| UUACUCAUGUAAGGAUAUGCAGCCGAAACGGCUGCAGAAGGUACUAUAAUACAUGAGGAUCACCCAUGUAAAAUAAAUAAGGUU (puzzle (switch architecture): Same State NG 1) | 0.0195 µM | 0.0441 µM | – |
| UUUAUUUAUUGAGGAUAUGCACAGGAUCACCGUGUAGAAGGCAUCAGGGAGAAGGUGCAGAGGAUCACCCUGUAAGGAUAUCAC [pwkr2 ssNG1 DX.2] | – | – | apparent KD of MS2 coat protein (MS2 coat protein [3]; input ligand: FMN 200 uM): 0.144 µM; apparent KD of MS2 coat protein (MS2 coat protein [3]; input ligand: none): 0.381 µM |
| UUUAUUUUUAGAGGAUAUAUAGAGAGAGAGAGAAUAGAAGGCUAAACAUACAUGAACAUGAGGAUCACCCAUGUCACCCAUGUU [Attempt 2] | – | – | apparent KD of MS2 coat protein (MS2 coat protein [3]; input ligand: FMN 200 uM): 0.0343 µM; apparent KD of MS2 coat protein (MS2 coat protein [3]; input ligand: none): 0.0283 µM |
